This is an account of results in PMC9029106.

For the test, the target named is SKP2 (UniProt Q13309). The experiment in a line: co-IP, blot for Myc and p27. Particulars: reference: wild-type p27; sites T187.

With “p27 (Kip1) (from UniProt P46527) p27 T187A”, the “binding against the reference” value is given as “lost”.
